# Measured values as given in PMC11381358, “Phosphorylation of the nuclear poly(A) binding protein (PABPN1) during mitosis protects mRNA from hyperadenylation and maintains transcriptome dynamics”.
# T1: His-MBP-PABPN1 WT (human, UniProt Q86U42 1-306)
# T1 sequence: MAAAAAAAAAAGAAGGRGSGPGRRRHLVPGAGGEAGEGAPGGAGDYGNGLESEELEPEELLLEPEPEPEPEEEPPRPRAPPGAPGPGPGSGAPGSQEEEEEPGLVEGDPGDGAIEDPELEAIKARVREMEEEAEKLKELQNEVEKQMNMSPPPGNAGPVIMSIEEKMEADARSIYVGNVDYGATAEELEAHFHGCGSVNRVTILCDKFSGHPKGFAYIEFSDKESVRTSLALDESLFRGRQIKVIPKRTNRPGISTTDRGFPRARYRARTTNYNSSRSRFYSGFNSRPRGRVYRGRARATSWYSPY
# Biological target: T1, His-MBP-PABPN1 WT
# Experiment: filter binding; 50 mM Tris-HCl pH 8.0, 100 mM KCl, 5 mM MgCl2, 2 mM EDTA, 10% glycerol, 0.2 mg/ml BSA, 0.01% NP-40, 0.5 mM DTT, 2 U/ul RNase OUT; 500 pM RNA, protein 62.5 nM-4
# Conditions: protein: recombinant; tags: N-terminal His-MBP (uncleaved); label: 5'-32P; single strand
binder,measurement,value
AAAAAAAAAAAAAAAAAAAAAAAAAAAAAA (ssRNA) [poly(A)30],binding result,binds
